In PMC3760018 (European journal of immunology, 2013):
Where a chain is given by its changes, count along the chain named. Names and notes keep the numbering of the source.

B1: recombinant C4BP α-chain WT (natural protein, human, UniProt P04003 49-597, looked up)
chain: NCGPPPTLSFAAPMDITLTETRFKTGTTLKYTCLPGYVRSHSTQTLTCNSDGEWVYNTFCIYKRCRHPGELRNGQVEIKTDLSFGSQIEFSCSEGFFLIGSTTSRCEVQDRGVGWSHPLPQCEIVKCKPPPDIRNGRHSGEENFYAYGFSVTYSCDPRFSLLGHASISCTVENETIGVWRPSPPTCEKITCRKPDVSHGEMVSGFGPIYNYKDTIVFKCQKGFVLRGSSVIHCDADSKWNPSPPACEPNSCINLPDIPHASWETYPRPTKEDVYVVGTVLRYRCHPGYKPTTDEPTTVICQKNLRWTPYQGCEALCCPEPKLNNGEITQHRKSRPANHCVYFYGDEISFSCHETSRFSAICQGDGTWSPRTPSCGDICNFPPKIAHGHYKQSSSYSFFKEEIIYECDKGYILVGQAKLSCSYSHWSAPAPQCKALCRKPELVNGRLSVDKDQYVEPENVTIQCDSGYGVVGPQSITCSGNRTWYPEVPKCEWETPEGCEQVLTGKRLMQCLPNPEDVKMALEVYKLSLEIEQLELQRDSARQSTLDKEL
B2: recombinant C4BP α-chain G423E (natural protein, human, UniProt P04003 49-597, looked up)
chain: B1 chain with G375E
B3: recombinant C4BP α-chain R120H (natural protein, human, UniProt P04003 49-597, looked up)
chain: B1 chain with R72H
B4: recombinant C4BP α-chain D284E (natural protein, human, UniProt P04003 49-597, looked up)
chain: B1 chain with D236E
B5: recombinant C4BP α-chain I126T (natural protein, human, UniProt P04003 49-597, looked up)
chain: B1 chain with I78T
B6: recombinant C4BP α-chain I224T (natural protein, human, UniProt P04003 49-597, looked up)
chain: B1 chain with I176T
B7: recombinant C4BP α-chain I300T (natural protein, human, UniProt P04003 49-597, looked up)
chain: B1 chain with I252T

Molecular target: the molecule itself
Experiment: non-reducing SDS-PAGE

Stoichiometry N, 6:
B1, B2, B3, B4, B5, B6, B7

What follows are molecules tested against recombinant C4BP α-chain P4Q (human) (UniProt P04003) (assay: non-reducing SDS-PAGE).

Stoichiometry N, 6:
recombinant C4BP α-chain P4Q (from UniProt P04003 49-597) (natural protein)
